Measured values from patent US9340577.
Several values for one entry are separate records, joined by “and”; a condition that tells them apart may be missing. Equal entries are not always repeated.

T1: H-2Kb (mouse)
T1 chain 1: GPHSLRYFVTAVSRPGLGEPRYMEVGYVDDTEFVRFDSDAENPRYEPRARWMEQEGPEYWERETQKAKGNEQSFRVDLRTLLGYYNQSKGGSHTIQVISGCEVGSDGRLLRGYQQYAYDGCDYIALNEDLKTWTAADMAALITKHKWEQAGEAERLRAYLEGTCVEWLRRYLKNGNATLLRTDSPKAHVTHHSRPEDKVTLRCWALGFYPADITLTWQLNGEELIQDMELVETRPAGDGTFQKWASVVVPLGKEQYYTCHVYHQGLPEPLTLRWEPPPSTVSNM
T1 chain 2: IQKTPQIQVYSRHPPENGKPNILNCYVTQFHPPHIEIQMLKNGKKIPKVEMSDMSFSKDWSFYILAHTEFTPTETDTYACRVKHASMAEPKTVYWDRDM

T2: H-2Kd (mouse)
T2 chain 1: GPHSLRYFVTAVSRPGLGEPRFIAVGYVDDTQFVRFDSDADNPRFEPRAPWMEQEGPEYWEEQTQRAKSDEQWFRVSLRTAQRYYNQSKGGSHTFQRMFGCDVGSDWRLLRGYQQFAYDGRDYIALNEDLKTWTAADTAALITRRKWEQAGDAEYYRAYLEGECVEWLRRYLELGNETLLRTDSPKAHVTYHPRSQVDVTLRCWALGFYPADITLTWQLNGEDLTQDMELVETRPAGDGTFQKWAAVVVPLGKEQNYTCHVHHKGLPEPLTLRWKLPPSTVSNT
T2 chain 2: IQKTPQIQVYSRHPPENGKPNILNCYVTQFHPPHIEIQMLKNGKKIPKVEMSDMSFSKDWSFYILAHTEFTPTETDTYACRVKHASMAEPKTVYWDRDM

T3: H-2Db (mouse)
T3 chain 1: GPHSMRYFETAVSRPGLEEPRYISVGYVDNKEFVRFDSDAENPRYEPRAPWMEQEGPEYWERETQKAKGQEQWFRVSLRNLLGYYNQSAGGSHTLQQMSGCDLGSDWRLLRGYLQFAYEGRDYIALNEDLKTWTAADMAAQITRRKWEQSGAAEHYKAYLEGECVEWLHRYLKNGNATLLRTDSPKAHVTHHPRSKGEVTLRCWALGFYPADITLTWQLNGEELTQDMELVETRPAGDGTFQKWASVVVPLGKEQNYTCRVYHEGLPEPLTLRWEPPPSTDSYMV
T3 chain 2: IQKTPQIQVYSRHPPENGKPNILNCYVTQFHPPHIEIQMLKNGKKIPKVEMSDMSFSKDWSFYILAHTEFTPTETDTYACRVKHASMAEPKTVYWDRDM


Experiments:
Test in all cases: competition
Settings in all cases: modification not given
H-2Kb (mouse) = target: T1, H-2Kb (mouse)
H-2Kd (mouse) = target: T2, H-2Kd (mouse)
H-2Db (mouse) = target: T3, H-2Db (mouse)

Row | Binder | IC50 (H-2Kb (mouse)) | IC50 (H-2Kd (mouse)) | IC50 (H-2Db (mouse))
1 | FAPGYNPAL [1275.04] | 2 nM | – | –
2 | ANFSFRNTL [16.0031] | 6 nM | – | –
3 | LGYDYSYL [16.0004] | 3.4 nM | – | –
4 | WYWGPSLYSI [HBV env 362] | – | 16 nM and 8.3 nM | –
5 | YMVPFIPL [22.0021] | 70 nM | – | –
6 | RGPGRAFVTI [1087.01] | 31000 nM | – | 22000 nM
7 | FQPQNGQFI [LCMV NP 396] | > 31000 nM and 9510 nM | – | 4.9 nM and 6.9 nM and 17 nM
8 | VYIEVLHL [FluA POL3 227] | 75 nM and 21 nM | – | –
9 | HYYVSRDTL [F078.05] | – | 43 nM | –
10 | KVPRNQDWL [F142.01] | – | – | 38 nM
11 | VSAAFYHL [HBV pol 419] | 5.2 nM and 7 nM | – | –
12 | VGLSYSQTM [14.0118] | 71 nM | – | –
13 | KQYLNLYPV [HBV pol 668] | – | – | 3.4 nM
14 | SHYAFSPM [F190.04] | 250 nM | – | > 88000 nM
15 | AAAAAANAAAM [F079.09] | 31000 nM | – | –
16 | ASNENMDAM [1275.03] | – | – | 28 nM
17 | RNPRFYNL [1079.14] | 7.9 nM | – | > 44000 nM
18 | RTFSFQLI [Flu NS 114] | 26 nM and 27 nM | – | –
19 | MGLKFRQL [HBV core 122] | 7.4 nM and 6.3 nM | – | –
20 | TGICNQNII [FluA NM 46] | – | – | 21 nM and 13 nM
21 | SYVNTNMGL [HBV core 116] | – | 19 nM and 12 nM | –
22 | NAIVFKGL [17.0284] | 484 nM | – | –

Row | Binder | IC50 (H-2Kb (mouse)) | IC50 (H-2Kd (mouse)) | IC50 (H-2Db (mouse))
23 | AAAANAAAM [F079.08] | 11000 nM | – | 23 nM
24 | SYVPSAEQIL [1081.06] | – | 280 nM | –
25 | SIQFFGERAL [F079.03] | 21 nM | – | > 44000 nM
26 | KNKFFSYL [22.0011] | 57 nM | – | –
27 | MGLIYNRM [Flu M1 128] | 16 nM and 9.9 nM | – | –
28 | IVTMFEAL [14.0008] | 82 nM | – | –
29 | HMWNFIGV [1476.12] | 202 nM | – | –
30 | AYAPAKAAI [1114.01] | – | 3.5 nM | –
31 | SGVENPGGYCL [928.07] | > 31000 nM | – | 60 nM
32 | GVYQFKSV [14.0018] | 11 nM | – | –
33 | SYLTLAKHTI [F078.18] | – | 4.4 nM | –
34 | SIQFFGEL [F079.04] | 16 nM | – | > 44000 nM
35 | VYINTALL [FluA POL2 463] | 14 nM and 65 nM | – | –
36 | VSYVNTNM [HBV core 115] | 33 nM and 60 nM | – | –
37 | AYAGAKAAI [1114.07] | – | 48 nM | –
38 | TALANTIEV [FluA POL1 141] | – | – | 3.7 nM and 16 nM
39 | YYVSRDTLL [F078.06] | – | 99 nM | –
40 | RYLENGKETL [1074.15] | – | 80 nM | –
41 | IGRFYIQM [FluA NP 36] | 24 nM and 42 nM | – | –
42 | SSLPFQNI [FluA HA 305] | 9.5 nM and 53 nM | – | –
43 | SFFSSWQII [F078.07] | – | 16 nM | –
44 | AYANAKAAI [1114.05] | – | 60 nM | –

Row | Binder | IC50 (H-2Kb (mouse)) | IC50 (H-2Kd (mouse)) | IC50 (H-2Db (mouse))
45 | ISHNFCNL [14.0011] | 411 nM | – | –
46 | AYAEAKAAI [1114.03] | – | 50 nM | –
47 | LSYSAGAL [FluA M1 117] | 60 nM and 31 nM | – | –
48 | AAAAYAAM [F079.05] | – | – | > 44000 nM
49 | HYISMGTSGL [14.0137] | – | 83 nM | –
50 | ASARFSWL [HBV env 329] | 323 nM and 49 nM | – | –
51 | AYAVAKAAI [1114.09] | – | 42 nM | –
52 | FFYRYGFV [FluA POL1 495] | 350 nM | – | –
53 | WYIPPSLRTL [F057.08] | – | 96 nM | –
54 | SVYDFFVWL [F117.14] | 1 nM | – | –
55 | SQVMNLHNL [F100.04] | – | – | 2.3 nM
56 | MNIQFTAV [FluA HA 403] | 26 nM | – | –
57 | KMITQRTI [FluA POL1 198] | 300 nM | – | –
58 | RFYRTCKL [FluA POL1 465] | 47 nM | – | –
59 | SSMHNALHI [16.0029] | – | – | 7.6 nM
60 | SVYDFYVWM [F138.03] | 1.2 nM | – | –
61 | AAAAYAAAAM [F079.06] | – | – | > 44000 nM
62 | MITQFESL [Flu NS 31] | 42 nM and 64 nM | – | –
63 | FQPQNGQFIHFY [928.15] | – | – | 280 nM
64 | LAVLYCLL [22.0012] | 72 nM | – | –
